Measurements reported in patent publication US20260234247A1 (published 2026).

Tests used:
[1] = target: T1, human LILRB4 (human, UniProt Q8NHJ6 22-259); assay: ELISA, OD450, antibody at 200 nM; + = 2-fold over ISO
T1 construct: bought protein coated for ELISA; also called hLILRB4

[2] = target: T2, human LILRA4 (human, UniProt P59901 24-446); assay: as above
T2 construct: bought protein coated for ELISA; also called hLILRA4

[3] = target: T3, human LILRA2 (human, UniProt Q8N149 24-449); assay: as above
T3 construct: bought protein coated for ELISA; also called hLILRA2
T3 sequence (Q8N149 24-449 limits assumed): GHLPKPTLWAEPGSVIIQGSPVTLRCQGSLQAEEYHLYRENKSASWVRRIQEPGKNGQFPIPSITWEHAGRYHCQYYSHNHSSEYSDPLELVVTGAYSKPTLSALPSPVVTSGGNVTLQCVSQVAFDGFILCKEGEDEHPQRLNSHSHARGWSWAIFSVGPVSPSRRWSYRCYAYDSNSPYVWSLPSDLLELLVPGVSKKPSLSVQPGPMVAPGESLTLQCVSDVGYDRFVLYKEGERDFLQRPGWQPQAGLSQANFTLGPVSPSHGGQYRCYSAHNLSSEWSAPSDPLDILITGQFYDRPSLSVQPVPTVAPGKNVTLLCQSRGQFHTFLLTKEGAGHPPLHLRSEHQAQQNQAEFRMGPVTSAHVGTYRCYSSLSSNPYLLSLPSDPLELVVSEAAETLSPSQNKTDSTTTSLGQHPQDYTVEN

[4] = target: T4, human LILRB3 (human, UniProt O75022 24-443); assay: as above
T4 construct: bought protein coated for ELISA; also called hLILRB3

[5] = target: T5, human LILRB4 (human, UniProt Q8NHJ6 22-259); assay: ELISA, antibody at 200 nM, OD450; + = 2-fold over ISO
T5 construct: Bought protein; also called hLILRB4

[6] = target: T6, human LILRA5 (human, UniProt A6NI73 42-268, limits assumed); assay: as above
T6 construct: Bought protein; also called hLILRA5

[7] = target: T7, human LILRA1 (human, UniProt O75019 17-461, limits assumed); assay: as above
T7 construct: Bought protein; also called hLILRA1
T7 sequence (O75019 17-461 limits assumed): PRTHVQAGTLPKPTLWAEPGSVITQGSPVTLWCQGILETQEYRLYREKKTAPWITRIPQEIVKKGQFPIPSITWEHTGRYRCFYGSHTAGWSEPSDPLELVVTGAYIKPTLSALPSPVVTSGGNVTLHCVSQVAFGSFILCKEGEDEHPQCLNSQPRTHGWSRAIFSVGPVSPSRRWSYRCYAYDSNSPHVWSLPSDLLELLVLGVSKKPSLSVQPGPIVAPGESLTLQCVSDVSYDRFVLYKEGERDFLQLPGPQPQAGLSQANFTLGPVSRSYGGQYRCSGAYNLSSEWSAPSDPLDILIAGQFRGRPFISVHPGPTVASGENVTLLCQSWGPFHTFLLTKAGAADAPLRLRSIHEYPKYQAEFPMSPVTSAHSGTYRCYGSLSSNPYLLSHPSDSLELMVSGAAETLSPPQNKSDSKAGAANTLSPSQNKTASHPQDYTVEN

[8] = target: T8, human LILRA3 (human, UniProt Q8N6C8 24-439); assay: as above
T8 construct: Bought protein; also called hLILRA3

[9] = target: T9, human LILRA2 (human, UniProt Q8N149 24-449); assay: as above
T9 construct: Bought protein; also called hLILRA2
T9 sequence (Q8N149 24-449 limits assumed): as the sequence (Q8N149 24-449 limits assumed) above

[10] = target: T10, human LILRA2 (human, UniProt Q8N149 24-449); assay: ELISA, 200 nM antibody, OD450; + = 2-fold over ISO
T10 construct: Bought protein; also called hLILRA2
T10 sequence (Q8N149 24-449 limits assumed): as above

[11] = target: T11, human LILRA1 (human, UniProt O75019 17-461, limits assumed); assay: ELISA, 200 nM antibody, OD450; + = 2-fold over ISO
T11 construct: Bought protein; also called hLILRA1
T11 sequence (O75019 17-461 limits assumed): as the sequence (O75019 17-461 limits assumed) above

[12] = target: T12, Biotinylated LILRB1 (UniProt Q8NHL6 24-458, limits assumed, biotinylated (sites not given)); assay: epitope binning ELISA, coated 1 ug/ml; competitor LK-RB1-31 at 20 ug/ml
[13] = target: T12, Biotinylated LILRB1; assay: epitope binning ELISA, coated 1 ug/ml; competitor LK-RB1-12 at 20 ug/ml
[14] = target: T12, Biotinylated LILRB1; assay: epitope binning ELISA, coated 1 ug/ml; competitor LK-RB1-33 at 20 ug/ml
[15] = target: T12, Biotinylated LILRB1; assay: epitope binning ELISA, coated 1 ug/ml; competitor LK-RB1-47 at 20 ug/ml
[16] = target: T12, Biotinylated LILRB1; assay: epitope binning ELISA, coated 1 ug/ml; competitor LK-RB1-16 at 20 ug/ml
[17] = target: T12, Biotinylated LILRB1; assay: epitope binning ELISA, coated 1 ug/ml; competitor hz73D1.v1 at 20 ug/ml
[18] = target: T13, human LILRA1 (human, UniProt O75019 17-461, limits assumed); assay: Octet off-rate ranking;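 note: antibody dissociation rate constants against cynomolgus LILRB2 plus human LILRB1, LILRB2, LILRA1 and LILRA2, measured on an Octet instrument to rank binding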
T13 construct: also called hLILRA1
T13 sequence (O75019 17-461 limits assumed): as above

[19] = target: T14, human LILRB1 (human, UniProt Q8NHL6 24-458, limits assumed); assay: Octet off-rate ranking;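 note: antibody dissociation rate constants against cynomolgus LILRB2 plus human LILRB1, LILRB2, LILRA1 and LILRA2, measured on an Octet instrument to rank binding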
T14 construct: also called hLILRB1

[20] = target: T15, human LILRA2 (human, UniProt Q8N149 24-449, limits assumed); assay: Octet off-rate ranking;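 note: antibody dissociation rate constants against cynomolgus LILRB2 plus human LILRB1, LILRB2, LILRA1 and LILRA2, measured on an Octet instrument to rank binding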
T15 construct: also called hLILRA2

[21] = target: T12, Biotinylated LILRB1; assay: epitope binning ELISA, coated 1 ug/ml; competitor LK-RB1-9 at 20 ug/ml
[22] = target: T12, Biotinylated LILRB1; assay: epitope binning ELISA, coated 1 ug/ml; competitor 15G8 at 20 ug/ml
[23] = target: T16, human LILRB1 expressed on CHOK1 cells (human, UniProt Q8NHL6 24-650); assay: flow cytometry (FACS) binding to CHOK1-hLILRB1 cells
T16 construct: whole, on cells; also called CHOK1-hLILRB1; CHOK1-LILRB1

[24] = target: T17, human LILRB2 expressed on CHOK1 cells (human, UniProt Q8N423 22-597); assay: flow cytometry (FACS) binding to CHOK1-hLILRB2 cells
T17 construct: whole, on cells; also called CHOK1-hLILRB2; CHOK1-LILRB2

[25] = target: T17, human LILRB2 expressed on CHOK1 cells; assay: cell based RBA on CHOK1-hLILRB2 cells, flow cytometry; competitor HLA-G
[26] = target: T16, human LILRB1 expressed on CHOK1 cells; assay: cell based RBA on CHOK1-hLILRB1 cells, flow cytometry; competitor HLA-G
[27] = target: T18, human LILRB1 protein (Octet analyte) (human, UniProt Q8NHL6 24-458, limits assumed); assay: Octet (BLI), off rate ranking, kdis
T18 construct: The construct used in the Octet assay is not described; also called hLILRB1

[28] = target: T19, human LILRB2 protein (Octet analyte) (human, UniProt Q8N423 22-460, limits assumed); assay: Octet (BLI), off rate ranking, kdis
T19 construct: The construct used in the Octet assay is not described; also called hLILRB2
T19 sequence (Q8N423 22-460 limits assumed): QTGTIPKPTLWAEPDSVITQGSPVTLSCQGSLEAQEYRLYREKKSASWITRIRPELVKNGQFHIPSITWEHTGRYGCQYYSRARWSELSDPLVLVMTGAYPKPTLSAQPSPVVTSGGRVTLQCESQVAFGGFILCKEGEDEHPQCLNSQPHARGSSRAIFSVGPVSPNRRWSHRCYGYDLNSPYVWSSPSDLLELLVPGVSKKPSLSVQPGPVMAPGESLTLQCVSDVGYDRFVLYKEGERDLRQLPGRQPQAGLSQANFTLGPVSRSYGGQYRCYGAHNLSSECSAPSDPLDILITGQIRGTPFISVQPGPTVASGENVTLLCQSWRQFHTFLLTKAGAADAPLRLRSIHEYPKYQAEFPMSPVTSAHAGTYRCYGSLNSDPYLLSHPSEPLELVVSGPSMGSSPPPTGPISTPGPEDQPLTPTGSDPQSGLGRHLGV

T16 sequence (Q8NHL6 24-650): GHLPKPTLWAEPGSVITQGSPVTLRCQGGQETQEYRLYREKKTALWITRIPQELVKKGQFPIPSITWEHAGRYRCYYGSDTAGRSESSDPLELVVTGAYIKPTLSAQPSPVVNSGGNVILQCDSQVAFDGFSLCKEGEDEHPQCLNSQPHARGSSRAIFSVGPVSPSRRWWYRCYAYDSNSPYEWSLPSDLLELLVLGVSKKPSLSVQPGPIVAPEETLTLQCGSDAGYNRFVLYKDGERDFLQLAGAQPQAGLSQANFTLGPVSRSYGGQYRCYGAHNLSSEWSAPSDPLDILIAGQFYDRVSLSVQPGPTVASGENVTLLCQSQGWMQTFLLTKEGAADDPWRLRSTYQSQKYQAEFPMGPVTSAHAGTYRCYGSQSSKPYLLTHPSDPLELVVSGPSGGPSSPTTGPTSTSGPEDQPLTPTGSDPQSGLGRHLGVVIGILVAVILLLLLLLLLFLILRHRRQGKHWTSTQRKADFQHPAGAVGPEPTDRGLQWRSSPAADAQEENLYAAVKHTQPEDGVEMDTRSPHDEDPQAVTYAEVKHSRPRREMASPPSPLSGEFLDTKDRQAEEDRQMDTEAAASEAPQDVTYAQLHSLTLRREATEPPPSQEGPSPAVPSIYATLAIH
T17 sequence (Q8N423 22-597): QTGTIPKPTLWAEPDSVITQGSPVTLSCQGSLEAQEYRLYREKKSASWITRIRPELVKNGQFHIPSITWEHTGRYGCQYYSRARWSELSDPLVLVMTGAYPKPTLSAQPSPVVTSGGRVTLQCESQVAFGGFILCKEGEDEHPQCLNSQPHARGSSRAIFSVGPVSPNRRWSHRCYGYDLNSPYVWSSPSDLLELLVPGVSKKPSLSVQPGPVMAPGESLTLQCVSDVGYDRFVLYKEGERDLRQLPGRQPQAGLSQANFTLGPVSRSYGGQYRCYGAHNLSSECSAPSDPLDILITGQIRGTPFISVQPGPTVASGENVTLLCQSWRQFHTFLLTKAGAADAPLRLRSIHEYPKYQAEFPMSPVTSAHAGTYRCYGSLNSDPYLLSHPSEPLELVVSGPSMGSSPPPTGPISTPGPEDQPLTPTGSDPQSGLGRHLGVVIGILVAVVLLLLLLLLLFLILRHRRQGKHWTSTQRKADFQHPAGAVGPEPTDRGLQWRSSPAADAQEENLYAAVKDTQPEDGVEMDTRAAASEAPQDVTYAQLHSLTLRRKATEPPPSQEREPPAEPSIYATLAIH
T12 sequence (Q8NHL6 24-458 limits assumed): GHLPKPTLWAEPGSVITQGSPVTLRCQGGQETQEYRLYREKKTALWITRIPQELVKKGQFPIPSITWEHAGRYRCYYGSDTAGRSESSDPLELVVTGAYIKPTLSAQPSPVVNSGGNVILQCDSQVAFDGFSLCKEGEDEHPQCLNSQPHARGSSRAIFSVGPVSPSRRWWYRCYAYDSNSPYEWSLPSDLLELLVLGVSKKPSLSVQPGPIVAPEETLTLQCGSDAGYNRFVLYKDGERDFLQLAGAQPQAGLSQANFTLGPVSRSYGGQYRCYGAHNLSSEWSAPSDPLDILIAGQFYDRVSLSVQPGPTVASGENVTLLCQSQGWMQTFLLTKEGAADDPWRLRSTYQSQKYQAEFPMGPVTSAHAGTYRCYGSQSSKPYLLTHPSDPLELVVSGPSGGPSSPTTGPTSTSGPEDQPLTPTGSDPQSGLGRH
T14 sequence (Q8NHL6 24-458 limits assumed): as above
T18 sequence (Q8NHL6 24-458 limits assumed): as above
T15 sequence (Q8N149 24-449 limits assumed): as the sequence (Q8N149 24-449 limits assumed) above
T6 sequence (A6NI73 42-268 limits assumed): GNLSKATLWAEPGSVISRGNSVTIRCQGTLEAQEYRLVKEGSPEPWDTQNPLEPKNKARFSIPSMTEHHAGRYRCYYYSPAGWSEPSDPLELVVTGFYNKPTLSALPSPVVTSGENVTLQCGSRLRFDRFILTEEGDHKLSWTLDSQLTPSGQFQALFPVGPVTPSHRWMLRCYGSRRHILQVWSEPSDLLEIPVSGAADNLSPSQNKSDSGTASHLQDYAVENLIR

B1: LK-RB1-1 (antibody, human IgG4 S228P, kappa, V domains shown)
VH: QIQLVQSGPELKKPGETVKISCKASGYSFTNFGMSWVKQAPGKALKWMGWINTYSGVPTYADDFKGRFAFSLETSANTAYLQINNLKNEDSATYFCARRRRTFDGYLCFDYWGQGATLTVSS
VL: QLVLTQSSSASFSLGASAKLTCTLSSQHSTYSIDWYQQQPLKPPKYVMELKTDGSHRTGDGIPDRFSGSSSGADRYLSISNIQPEDEAIYICGVGDTIKEQFVYVFGGGTKVTVLR
notes: anti-LILRB1 antibody
Question: Does B1 bind [1]?
Answer: Result: binds

Question: Does B1 bind [2]?
Answer: Result: binds

B2: LK-RB1-5 (antibody, human IgG4 S228P, kappa, V domains shown)
VH: QVQLQQPGAELVKPGASVKLSCKASGYTFTDFWIHWVKQRPGQGLEWIGMIHPNSGSTNFNEKFRAKATLTVDKSSSTAYMRLSSLTSEDSAVYYCARSGDGYSNPMDYWGQGTSVTVSS
VL: QIVLSQSPAILSASPGEKVTLTCRASSSVSYMHWYQQKPGSSPKPWIYATSNLASGVPVRFSGSGSGTSYSLTISRMQTEDAATYYCQQWRRSPYTFGGGTKLEIKR
notes: anti-LILRB1 antibody
Question: Does B2 bind [3]?
Answer: Result: binds

Question: Does B2 bind [4]?
Answer: Result: binds

B3: LK-RB2-8 (antibody, human IgG4 S228P, kappa, V domains shown)
VH: QIQLVQSGPELKKPGETVKISCKASGYSFASYGMGWVKQAPGKGLKWLGWINTHSGVPTYADDFKGRFAFSLETSASTAYLQINNLKNEDTATYFCAHYGRPWFPYWGQGTLVTVSA
VL: DIQMTQSPASLSASVGETVTITCRTSENIYSYLAWYQQKQGKSPQLLVYNAKSLAEGVPSRFSGSGSGTQFSLRINSLQPEDFGTYYCQQHYETPLTFGAGTKLELKR
Question: Which results are given for B3?
Answer: binding result [5]: binds; binding result [6]: binds; binding result [7]: binds; binding result [8]: binds

B4: LK-RB2-10 (antibody, human IgG4 S228P, kappa, V domains shown)
VH: EVMLVESGGDLVKPGGSLKLSCAASGFTFSANTVSWLRRTPERRLEWVATISGGSDNTYCPDSVKGRFTISRDNARDTLYLQMSSLTSEDTALYFCARHYYDGPNWYFDVWGPGTTVTVSS
VL: DIVMTQSQKFMSSTGGDRVTITCKASQNVDTAVAWYQQKPGQSPKLLIYSASNRYIGVPDRFKGSGSGTDFSLTITNIQSEDLAEYFCQQYSSYPLTFGAGTKLELKR
Question: Does B4 bind [9]?
Answer: Result: binds

B5: LK-RB2-29 (antibody, human IgG4 S228P, kappa, V domains shown)
VH: QVQLQQSGAELARPGASVKLSCKASGYTFTSYWMQWVKQRPGQGLEWIGAIYPGDGDTRYTQKFKGKATLTADKSSSTAYMQLSSLASEDSAVYYCARGYYGSSYADYFDYWGQGTTLTVSS
VL: DIQMTQSPASLSASVGETVTITCRASGNIHNYLAWYQQKQGKSPQLLVYNAKTLADGVPSRFSGSGSGTQYSLKINSLQPEDFGSYYCQHFWSTPPTFGGGTKLEIKR
Question: Does B5 bind [10]?
Answer: Result: binds

Question: Does B5 bind [11]?
Answer: Result: binds

B6: LK-RB2-41 (antibody, human IgG4 S228P, kappa, V domains shown)
VH: EVQLQLSGPELVKPGASVKMSCKASGYTFTDYNMHWVKQSHGKSLEWIGYINPNNGGTTYNQKFKGKATLTVNKSSSTAYMELRSLTSEDSAVYYCARAPYYGSSYLLAYWGQGTLVTVSA
VL: DIVMTQSHKFMSTSVGDRVSITCKASQDVSTAVAWYQQKPGQSPKLLIYSASYRYTGVPDRFTGSGSGTDFTFTISSVQAEDLAIYYCQQHYSIPWTFGGGTKLEIKR
Question: Does B6 bind [10]?
Answer: Result: binds

Question: Does B6 bind [11]?
Answer: Result: binds

B7: LK-RB1-9 (antibody, human IgG4 S228P, kappa, V domains shown)
VH: QIQLVQSGPELKKPGETVKISCTASGYTFTTYGMSWVKQAPGKGLKWMGWINTYSGVPTYADDFKGRFAFSLETSASTAYLEINNVKNEDTATYFCARRRRTYHGYLCFDYWGQGTTLTVSS
VL: DIQMTQSPVSLSASVGETVTITCETSENIYGALNWYQRKQGKSPQLLIYGATNLADGMSSRFSGSGSGRQYSLEISSLHPDDVASYYCQNVLNTPWTFGGGTKLEIKR
Question: What does the source list for B7?
Answer: Inhibition % [12]: 10.2%; Inhibition % [13]: 92.1%; Inhibition % [14]: 67.4%; Inhibition % [15]: 89.1%; Inhibition % [16]: 21.9%; Inhibition % [17]: 88.1%; koff [18]: 0.000155 s⁻¹; koff [19]: 0.000162 s⁻¹; koff [20]: 0.000885 s⁻¹; Inhibition % [21]: 73.9%; Inhibition % [22]: 48.6%

B8: 15G8 (antibody, human IgG4 S228P, kappa, V domains shown)
VH: DVQLQGSGPGLVKPSETLSLTCSVTGYSITSGYYWNWIRQFPGKKLEWMGYISYDGSNNYNPSLKNRITISRDTSKNQFSLKLNSVTAADTATYYCAHGYSYYYAMDAWGQGTSVTVSS
VL: DIQMTQSPSSLSASVGDRVTITCRTSQDISNYLNWYQQKPGKAVKLLISYTSRLHSGVPSRFSGSGSGTDYTLTISSLQPEDFATYYCQQGNTLPTFGQGTKLEIKR
Question: With B8 as the binder, how does the Inhibition % [12] read?
Answer: The Inhibition % was -0.67%.

Question: And the Inhibition % [13]?
Answer: The Inhibition % was 3.58%.

Question: And the Inhibition % [14]?
Answer: The Inhibition % was 90.5%.

Question: And the Inhibition % [15]?
Answer: The Inhibition % was 13.5%.

Question: What about the Inhibition % [16] of the same binder?
Answer: Its Inhibition % is -0.72%.

Question: And the Inhibition % [17]?
Answer: Its Inhibition % is -0.56%.

Question: And the koff [18]?
Answer: Its koff is 0.000278 s⁻¹.

Question: And the koff [19]?
Answer: Its koff is 0.00389 s⁻¹.

Question: What about the koff [20] of the same binder?
Answer: The koff was 0.00117 s⁻¹.

Question: What about the Inhibition % [21] of the same binder?
Answer: Its Inhibition % is 92.1%.

Question: What about the Inhibition % [22] of the same binder?
Answer: The Inhibition % was 73%.

B9: LK-RBi-05 (bispecific antibody, human IgG4 S228P, kappa)
heavy: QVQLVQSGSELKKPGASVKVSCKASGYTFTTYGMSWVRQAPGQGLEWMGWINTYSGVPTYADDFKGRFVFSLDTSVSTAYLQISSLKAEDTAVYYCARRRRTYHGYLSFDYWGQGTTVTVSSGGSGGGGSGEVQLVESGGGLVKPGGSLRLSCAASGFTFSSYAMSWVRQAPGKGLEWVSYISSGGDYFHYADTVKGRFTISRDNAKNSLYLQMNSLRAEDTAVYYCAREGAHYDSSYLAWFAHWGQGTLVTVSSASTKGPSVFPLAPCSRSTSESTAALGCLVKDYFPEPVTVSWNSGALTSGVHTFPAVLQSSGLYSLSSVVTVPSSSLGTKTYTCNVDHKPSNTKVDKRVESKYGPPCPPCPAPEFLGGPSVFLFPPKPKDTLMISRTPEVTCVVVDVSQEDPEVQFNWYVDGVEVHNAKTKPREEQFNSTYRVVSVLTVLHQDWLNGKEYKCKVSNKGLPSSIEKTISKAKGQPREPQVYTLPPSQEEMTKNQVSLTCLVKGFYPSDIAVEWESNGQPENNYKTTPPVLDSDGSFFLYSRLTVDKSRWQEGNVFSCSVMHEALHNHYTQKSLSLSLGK
light: DIQMTQSPSSLSASVGDRVTITCETSENIYGALNWYQQKPGKAPKLLIYGATNLAEGVPSRFSGSGSGTDFTFTISSLQPEDIATYYCQNVLNTPWTFGGGTKLEIKGGSGGGGSGDIQMTQSPSSVSASVGDRVTITCRASENIYSNLAWYQQKPGKAPKLLIYAATNLAEGVPSRFSGSGSGTDYTLTISSLQPEDFATYYCQQFWDNPLTFGQGTKLEIKRTVAAPSVFIFPPSDEQLKSGTASVVCLLNNFYPREAKVQWKVDNALQSGNSQESVTEQDSKDSTYSLSSTLTLSKADYEKHKVYACEVTHQGLSSPVTKSFNRGEC
Question: Which results are given for B9?
Answer: EC50 [23]: 2.32 nM; EC50 [24]: 0.73 nM; EC50 [25]: 0.43 µg/mL; EC50 [26]: 4.2 µg/mL; koff [27]: 0.00021 s⁻¹; koff [28]: 8.24e-06 s⁻¹

B10: LK-RBi-08 (bispecific antibody, human IgG4 S228P, kappa)
heavy: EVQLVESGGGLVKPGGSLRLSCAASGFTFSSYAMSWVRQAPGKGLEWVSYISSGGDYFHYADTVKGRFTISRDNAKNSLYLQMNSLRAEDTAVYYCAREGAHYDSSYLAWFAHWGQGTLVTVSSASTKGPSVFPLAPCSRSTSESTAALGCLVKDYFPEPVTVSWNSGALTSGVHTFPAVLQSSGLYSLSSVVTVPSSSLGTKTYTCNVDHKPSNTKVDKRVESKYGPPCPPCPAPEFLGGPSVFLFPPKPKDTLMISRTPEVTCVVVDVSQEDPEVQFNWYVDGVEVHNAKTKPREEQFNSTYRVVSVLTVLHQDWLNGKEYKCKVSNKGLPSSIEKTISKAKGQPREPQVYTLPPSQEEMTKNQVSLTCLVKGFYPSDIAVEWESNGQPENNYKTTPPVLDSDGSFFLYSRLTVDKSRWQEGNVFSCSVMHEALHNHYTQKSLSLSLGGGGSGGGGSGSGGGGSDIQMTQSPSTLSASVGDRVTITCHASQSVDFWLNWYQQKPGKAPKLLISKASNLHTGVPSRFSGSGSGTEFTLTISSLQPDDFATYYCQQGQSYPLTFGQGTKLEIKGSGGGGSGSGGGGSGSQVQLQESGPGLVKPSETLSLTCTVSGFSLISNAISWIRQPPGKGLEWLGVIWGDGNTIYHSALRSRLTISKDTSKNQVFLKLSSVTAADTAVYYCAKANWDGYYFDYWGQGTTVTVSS
light: DIQMTQSPSSVSASVGDRVTITCRASENIYSNLAWYQQKPGKAPKLLIYAATNLAEGVPSRFSGSGSGTDYTLTISSLQPEDFATYYCQQFWDNPLTFGQGTKLEIKRTVAAPSVFIFPPSDEQLKSGTASVVCLLNNFYPREAKVQWKVDNALQSGNSQESVTEQDSKDSTYSLSSTLTLSKADYEKHKVYACEVTHQGLSSPVTKSFNRGEC
Question: For B10, which EC50 [23] is on record?
Answer: Its EC50 is 2.66 nM.

Question: What about the EC50 [24] of the same binder?
Answer: Its EC50 is 0.37 nM.

Question: What about the EC50 [25] of the same binder?
Answer: The EC50 was 0.28 µg/mL.

Question: What about the EC50 [26] of the same binder?
Answer: Its EC50 is 6.03 µg/mL.

Question: What about the koff [27] of the same binder?
Answer: Its koff is 0.000166 s⁻¹.

Question: What about the koff [28] of the same binder?
Answer: Its koff is 5.68e-05 s⁻¹.
